The record followed here is paper PMC4434891, “The Smc5-Smc6 heterodimer associates with DNA through several independent binding domains” (Scientific Reports, 2015).

In the experiment the target is T1, Smc6 FL (full-length Smc6) (UniProt Q12749 1-1114).
T1 construct: Smc6, full length, residues 1-1114; Vector YEpFAT4; also called FL Smc6; source: yeast, purified as previously described (StrepTrap column)
T1 sequence (looked up): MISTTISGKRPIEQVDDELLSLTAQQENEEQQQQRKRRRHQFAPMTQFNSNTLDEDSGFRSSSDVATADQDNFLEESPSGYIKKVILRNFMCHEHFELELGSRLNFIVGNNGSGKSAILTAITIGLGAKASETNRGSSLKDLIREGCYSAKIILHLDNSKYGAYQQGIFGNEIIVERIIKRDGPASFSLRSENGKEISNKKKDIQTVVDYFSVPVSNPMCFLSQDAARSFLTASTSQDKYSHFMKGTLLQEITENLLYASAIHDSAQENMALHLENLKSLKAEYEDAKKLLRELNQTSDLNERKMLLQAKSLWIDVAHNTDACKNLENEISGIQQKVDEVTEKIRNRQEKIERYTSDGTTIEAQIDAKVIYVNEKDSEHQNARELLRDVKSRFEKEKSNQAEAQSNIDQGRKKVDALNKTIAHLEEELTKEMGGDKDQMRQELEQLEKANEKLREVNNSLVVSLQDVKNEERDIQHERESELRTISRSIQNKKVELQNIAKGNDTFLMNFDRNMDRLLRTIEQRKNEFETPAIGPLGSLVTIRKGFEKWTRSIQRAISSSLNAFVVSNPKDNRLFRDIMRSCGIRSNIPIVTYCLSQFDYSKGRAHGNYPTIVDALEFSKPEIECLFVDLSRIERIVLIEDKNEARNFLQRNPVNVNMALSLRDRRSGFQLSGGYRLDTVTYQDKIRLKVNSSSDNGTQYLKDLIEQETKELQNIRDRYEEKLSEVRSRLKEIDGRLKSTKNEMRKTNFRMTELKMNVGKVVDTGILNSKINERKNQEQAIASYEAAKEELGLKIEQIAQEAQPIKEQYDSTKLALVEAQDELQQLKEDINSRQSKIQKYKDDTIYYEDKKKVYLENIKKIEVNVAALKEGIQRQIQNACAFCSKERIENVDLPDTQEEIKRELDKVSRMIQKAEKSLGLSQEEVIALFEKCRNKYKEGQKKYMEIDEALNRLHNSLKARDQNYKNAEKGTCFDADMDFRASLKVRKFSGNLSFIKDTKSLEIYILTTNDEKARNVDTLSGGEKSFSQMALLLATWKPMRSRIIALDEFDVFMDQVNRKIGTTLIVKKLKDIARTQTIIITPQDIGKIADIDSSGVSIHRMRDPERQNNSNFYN
As to the kind of experiment: SEC; StrepTrap eluates of Smc6 (5 mL) and Smc5 (150 uL) mixed, overnight at 4 °C, concentrated; complexes separated from monomeric subunits on Superose 6 10/300 in buffer G (25 mM potassium phosphate pH 8.0, 750 mM NaCl, 15% glycerol, 0.2% Tween 20, 2 mM 2-ME, 1 mM EDTA). The following applies: both partners purified. (In gel filtration, larger molecules generally elute earlier.)

B1: Smc5 FL (full-length Smc5) (natural protein, UniProt Q08204 1-1093, looked up)
chain: MTSLIDLGRYVERTHHGEDTEPRSKRVKIAKPDLSSFQPGSIIKIRLQDFVTYTLTEFNLSPSLNMIIGPNGSGKSTFVCAVCLGLAGKPEYIGRSKKVEDFIKNGQDVSKIEITLKNSPNVTDIEYIDARDETIKITRIITRSKRRSDYLINDYQVSESVVKTLVAQLNIQLDNLCQFLSQERVEEFARLKSVKLLVETIRSIDASLLDVLDELRELQGNEQSLQKDLDFKKAKIVHLRQESDKLRKSVESLRDFQNKKGEIELHSQLLPYVKVKDHKEKLNIYKEEYERAKANLRAILKDKKPFANTKKTLENQVEELTEKCSLKTDEFLKAKEKINEIFEKLNTIRDEVIKKKNQNEYYRGRTKKLQATIISTKEDFLRSQEILAQTHLPEKSVFEDIDIKRKEIINKEGEIRDLISEIDAKANAINHEMRSIQRQAESKTKSLTTTDKIGILNQDQDLKEVRDAVLMVREHPEMKDKILEPPIMTVSAINAQFAAYLAQCVDYNTSKALTVVDSDSYKLFANPILDKFKVNLRELSSADTTPPVPAETVRDLGFEGYLSDFITGDKRVMKMLCQTSKIHTIPVSRRELTPAQIKKLITPRPNGKILFKRIIHGNRLVDIKQSAYGSKQVFPTDVSIKQTNFYQGSIMSNEQKIRIENEIINLKNEYNDRKSTLDALSNQKSGYRHELSELASKNDDINREAHQLNEIRKKYTMRKSTIETLREKLDQLKREARKDVSQKIKDIDDQIQQLLLKQRHLLSKMASSMKSLKNCQKELISTQILQFEAQNMDVSMNDVIGFFNEREADLKSQYEDKKKFVKEMRDTPEFQSWMREIRSYDQDTKEKLNKVAEKYEEEGNFNLSFVQDVLDKLESEIAMVNHDESAVTILDQVTAELRELEHTVPQQSKDLETIKAKLKEDHAVLEPKLDDIVSKISARFARLFNNVGSAGAVRLEKPKDYAEWKIEIMVKFRDNAPLKKLDSHTQSGGERAVSTVLYMIALQEFTSAPFRVVDEINQGMDSRNERIVHKAMVENACAENTSQYFLITPKLLTGLHYHEKMRIHCVMAGSWIPNPSEDPKMIHFGETSNYSFD
notes: Smc5, full length, residues 1-1093; Vector YEpFAT4; also called FL Smc5; source: yeast, purified as previously described (StrepTrap column)
As for B1, the binding result is given as “binds”.
